Measured values published in patent publication US20100203046A1 (Biogen, published 2010).
Where two headings read alike, the source gives them in different places.

Experiments:
[1] = molecular target: T1, human FcγRIII (CD16), CD16a (F158), on CD16-transfected Jurkat cells (human, UniProt P08637 17-254); experiment: CD16 bridging assay, transient
T1 construct: whole, on cells

human C1q (Sigma C0660) [2] = molecular target: T2, human C1q (Sigma C0660) (human, UniProt P02745 23-245; P02746 28-253; P02747 29-245); experiment: C1q ELISA on CD2, transient
T2 construct: Bought protein; also called complement protein C1q
T2 sequence (P02745 23-245 limits assumed, chain 1 of 3): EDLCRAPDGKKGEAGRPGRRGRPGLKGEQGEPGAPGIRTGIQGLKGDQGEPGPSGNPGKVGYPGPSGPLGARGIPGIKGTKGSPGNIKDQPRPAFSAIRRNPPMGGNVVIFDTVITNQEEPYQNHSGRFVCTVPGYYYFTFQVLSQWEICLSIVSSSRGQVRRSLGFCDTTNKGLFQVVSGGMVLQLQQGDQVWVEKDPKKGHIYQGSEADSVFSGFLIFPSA
T2 sequence (P02746 28-253 limits assumed, chain 2 of 3): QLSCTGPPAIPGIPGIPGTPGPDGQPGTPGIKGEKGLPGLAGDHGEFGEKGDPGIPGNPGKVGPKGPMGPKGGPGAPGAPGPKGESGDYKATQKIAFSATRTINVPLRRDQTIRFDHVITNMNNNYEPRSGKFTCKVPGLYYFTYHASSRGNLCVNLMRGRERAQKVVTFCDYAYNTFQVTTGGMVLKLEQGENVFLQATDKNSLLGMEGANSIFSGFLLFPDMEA
T2 sequence (P02747 29-245 limits assumed, chain 3 of 3): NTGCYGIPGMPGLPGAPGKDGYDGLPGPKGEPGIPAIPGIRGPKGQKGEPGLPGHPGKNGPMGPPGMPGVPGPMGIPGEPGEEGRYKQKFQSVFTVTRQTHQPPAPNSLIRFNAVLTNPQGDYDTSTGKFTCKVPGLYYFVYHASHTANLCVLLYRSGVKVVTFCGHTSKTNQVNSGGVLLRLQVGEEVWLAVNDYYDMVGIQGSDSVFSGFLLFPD
Description: (§1) The C1q binding assay was performed by coating 96 well Maxisorb ELISA plates (Nalge-Nunc Rochester, N.Y., USA) with 50 μl recombinant soluble human CD2 at 10 μg/ml overnight at 4° C. in PBS. The wells were aspirated and washed three times with wash buffer (PBS, 0.05% Tween 20) and blocked for >1 h with 200 μ/well of block/diluent buffer (0.1 M Na₂HPO₄, pH 7, 0.1 M NaCl, 0.05% Tween 20, 0.1% gelatin). The antibody to be tested was diluted in block/diluent buffer starting at 15 μg/ml with 3-fold dilutions. 50 μl were added per well, and the plates incubated for 2 h at room temperature. After aspirating and washing as above, 50 μl/well of 2 μg/ml of Sigma human C1q (C0660) diluted in block/diluent buffer was added and incubated for 1.5 h at room temperature. After aspirating and washing as above, 50 μl/well of chicken anti human C1q (Cedarlane laboratories CL2101AP), diluted 2,000-fold in block/diluent buffer, was added. After incubation for 1.5 h at room temperature, the wells were aspirated and washed as above. 50 μl/well of donkey F(ab′)₂ anti chicken IgY HRP conjugate (Jackson ImmunoResearch 703-036-155) diluted to 1:5,000 in block/diluent was then added, and the wells incubated for 1 h at room temperature. After aspirating and washing as above, 100 μl TMB substrate (420 μM TMB, 0.004% H₂O₂ in 0.1 M sodium acetate/citric acid buffer, pH 4.9) was added and incubated for 2 min before the reaction was stopped with 100 μl 2 N sulfuric acid. The absorbance was read at 450 nm with a Softmax P instrument, and Softmax software was used to determine the relative binding affinity (C value) with a 4-parameter fit.

[3] = molecular target: T1, human FcγRIII (CD16), CD16a (F158), on …; experiment: CD16 bridging assay, transient; remark: listed apart in the source
human C1q (Sigma C0660) [4] = molecular target: T2, human C1q (Sigma C0660); experiment: C1q ELISA on CD2, purified
Description: as §1

[5] = molecular target: T1, human FcγRIII (CD16), CD16a (F158), on …; experiment: CD16 bridging assay, transient; remark: listed apart in the source
[6] = molecular target: T1, human FcγRIII (CD16), CD16a (F158), on …; experiment: CD16 bridging assay, transient; remark: listed apart in the source
[7] = molecular target: T3, human FcγRI (CD64) on IFNγ-activated U937 cells (human, UniProt P12314 16-374); experiment: CD64 bridging assay, purified
T3 construct: whole, on cells; also called FcγR1
T3 sequence (P12314 16-374): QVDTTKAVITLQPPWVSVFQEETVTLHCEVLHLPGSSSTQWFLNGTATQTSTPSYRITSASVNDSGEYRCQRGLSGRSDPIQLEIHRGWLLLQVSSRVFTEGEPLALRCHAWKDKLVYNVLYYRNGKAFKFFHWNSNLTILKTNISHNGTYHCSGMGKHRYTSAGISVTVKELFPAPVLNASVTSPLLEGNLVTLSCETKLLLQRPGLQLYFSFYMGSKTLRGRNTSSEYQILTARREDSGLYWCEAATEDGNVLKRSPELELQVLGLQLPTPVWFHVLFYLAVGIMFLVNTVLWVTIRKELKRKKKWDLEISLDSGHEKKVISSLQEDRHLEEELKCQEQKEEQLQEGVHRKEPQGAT

T1 sequence (P08637 17-254): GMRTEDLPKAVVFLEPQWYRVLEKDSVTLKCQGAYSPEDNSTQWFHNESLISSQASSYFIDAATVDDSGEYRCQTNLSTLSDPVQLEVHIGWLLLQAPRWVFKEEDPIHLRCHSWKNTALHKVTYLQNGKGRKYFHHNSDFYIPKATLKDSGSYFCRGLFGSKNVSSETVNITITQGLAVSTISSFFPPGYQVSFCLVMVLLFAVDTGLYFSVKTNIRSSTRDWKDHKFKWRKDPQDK

B1: chCB6-huIgG1 S239D/A378K (antibody, name in EU numbering)
heavy: not shown
light: QIVLTQSPAIMSASPGEKVTMTCRASSSVSHMHWYQQKSGTSPKRWIYDTSKLASGVPARFSGSGSGTSYSLTISSVEAEDAATYYCQQWSSNPLTFGAGTKLELKRTVAAPSVFIFPPSDEQLKSGTASVVCLLNNFYPREAKVQWKVDNALQSGNSQESVTEQDSKDSTYSLSSTLTLSKADYEKHKVYACEVTHQGLSSPVTKSFNRGEC
notes: copies: 2 + 2
- fold increase in binding vs WT [1]: 5 fold

B2: chCB6-huIgG1 R301N (antibody, name in EU numbering)
heavy: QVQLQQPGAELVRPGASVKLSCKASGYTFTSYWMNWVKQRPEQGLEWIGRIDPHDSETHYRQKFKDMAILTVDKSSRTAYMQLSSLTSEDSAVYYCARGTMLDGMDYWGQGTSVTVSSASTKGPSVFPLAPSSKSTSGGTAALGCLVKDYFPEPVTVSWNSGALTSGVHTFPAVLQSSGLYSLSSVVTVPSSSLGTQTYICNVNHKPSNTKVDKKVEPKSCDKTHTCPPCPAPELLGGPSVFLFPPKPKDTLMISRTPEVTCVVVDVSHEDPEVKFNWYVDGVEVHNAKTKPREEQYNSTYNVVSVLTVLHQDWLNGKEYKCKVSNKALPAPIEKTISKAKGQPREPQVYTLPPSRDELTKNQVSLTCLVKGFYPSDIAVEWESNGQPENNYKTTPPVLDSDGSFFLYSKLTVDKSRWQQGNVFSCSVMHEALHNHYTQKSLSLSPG
light: B1 light
notes: copies: 2 + 2
- fold decrease in binding vs WT (human C1q (Sigma C0660) [2]): 3 fold
- fold decrease in binding vs WT [3]: 5 fold

B3: chCB6-huIgG1 L251A (antibody, name in EU numbering)
heavy: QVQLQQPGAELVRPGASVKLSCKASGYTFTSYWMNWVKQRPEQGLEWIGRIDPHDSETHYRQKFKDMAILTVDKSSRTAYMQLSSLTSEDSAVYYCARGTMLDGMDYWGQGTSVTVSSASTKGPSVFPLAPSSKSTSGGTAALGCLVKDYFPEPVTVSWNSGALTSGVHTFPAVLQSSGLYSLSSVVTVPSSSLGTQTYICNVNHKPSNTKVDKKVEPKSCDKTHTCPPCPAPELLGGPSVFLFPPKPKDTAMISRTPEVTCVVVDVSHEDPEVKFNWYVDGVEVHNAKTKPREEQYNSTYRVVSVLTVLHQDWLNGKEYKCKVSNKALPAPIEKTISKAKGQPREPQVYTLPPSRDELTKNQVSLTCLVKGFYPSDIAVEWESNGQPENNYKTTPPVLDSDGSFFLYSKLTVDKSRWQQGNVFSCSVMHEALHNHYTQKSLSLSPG
light: B1 light
notes: copies: 2 + 2
- fold increase in binding vs WT (human C1q (Sigma C0660) [2]): 3 fold
- fold increase in binding vs WT (human C1q (Sigma C0660) [4]): 2 fold
- binding result [5]: binds

B4: chCB6-huIgG1 I332D/A378W (antibody, name in EU numbering)
heavy: not shown
light: B1 light
notes: copies: 2 + 2
- fold increase in binding vs WT [1]: 5 fold

B5: chCB6-huIgG1 A378R (antibody, name in EU numbering)
heavy: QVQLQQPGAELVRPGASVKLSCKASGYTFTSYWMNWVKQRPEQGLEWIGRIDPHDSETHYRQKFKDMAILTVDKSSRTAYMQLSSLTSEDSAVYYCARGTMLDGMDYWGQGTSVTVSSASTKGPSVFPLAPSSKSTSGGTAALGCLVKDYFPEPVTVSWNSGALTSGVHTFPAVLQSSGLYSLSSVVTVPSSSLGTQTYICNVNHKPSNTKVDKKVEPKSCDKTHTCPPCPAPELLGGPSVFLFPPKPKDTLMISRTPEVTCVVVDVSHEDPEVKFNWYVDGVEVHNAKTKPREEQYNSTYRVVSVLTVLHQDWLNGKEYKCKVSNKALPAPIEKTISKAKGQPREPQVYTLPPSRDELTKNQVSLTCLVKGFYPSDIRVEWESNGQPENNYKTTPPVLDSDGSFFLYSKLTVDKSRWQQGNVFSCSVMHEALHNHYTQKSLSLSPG
light: B1 light
notes: copies: 2 + 2
- binding result (human C1q (Sigma C0660) [2]): binds
- binding result [5]: binds

B6: chCB6-huIgG1 S239D/A378F (antibody, name in EU numbering)
heavy: not shown
light: B1 light
notes: copies: 2 + 2
- fold increase in binding vs WT [1]: 5 fold

B7: chCB6-huIgG1 Y296T (antibody, name in EU numbering)
heavy: not shown
light: B1 light
notes: copies: 2 + 2
- fold decrease in binding vs WT (human C1q (Sigma C0660) [2]): 3 fold
- binding result [3]: no binding

B8: chCB6-huIgG1 L251G (antibody, name in EU numbering)
heavy: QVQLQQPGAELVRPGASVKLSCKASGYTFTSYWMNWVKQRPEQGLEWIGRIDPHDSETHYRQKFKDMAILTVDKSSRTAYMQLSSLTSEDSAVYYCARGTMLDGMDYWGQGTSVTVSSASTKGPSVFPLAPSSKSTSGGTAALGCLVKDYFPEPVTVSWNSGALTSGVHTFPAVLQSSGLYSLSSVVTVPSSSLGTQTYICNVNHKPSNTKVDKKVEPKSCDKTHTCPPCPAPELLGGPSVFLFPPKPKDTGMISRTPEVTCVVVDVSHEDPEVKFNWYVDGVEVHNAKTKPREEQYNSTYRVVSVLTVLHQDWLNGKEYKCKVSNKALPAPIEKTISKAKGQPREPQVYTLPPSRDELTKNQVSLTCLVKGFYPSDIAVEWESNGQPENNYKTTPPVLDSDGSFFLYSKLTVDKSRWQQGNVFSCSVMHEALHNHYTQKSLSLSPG
light: B1 light
notes: copies: 2 + 2
- fold increase in binding vs WT (human C1q (Sigma C0660) [2]): 3 fold
- binding result [5]: no binding

B9: chCB6-huIgG1 H435A (antibody, name in EU numbering)
heavy: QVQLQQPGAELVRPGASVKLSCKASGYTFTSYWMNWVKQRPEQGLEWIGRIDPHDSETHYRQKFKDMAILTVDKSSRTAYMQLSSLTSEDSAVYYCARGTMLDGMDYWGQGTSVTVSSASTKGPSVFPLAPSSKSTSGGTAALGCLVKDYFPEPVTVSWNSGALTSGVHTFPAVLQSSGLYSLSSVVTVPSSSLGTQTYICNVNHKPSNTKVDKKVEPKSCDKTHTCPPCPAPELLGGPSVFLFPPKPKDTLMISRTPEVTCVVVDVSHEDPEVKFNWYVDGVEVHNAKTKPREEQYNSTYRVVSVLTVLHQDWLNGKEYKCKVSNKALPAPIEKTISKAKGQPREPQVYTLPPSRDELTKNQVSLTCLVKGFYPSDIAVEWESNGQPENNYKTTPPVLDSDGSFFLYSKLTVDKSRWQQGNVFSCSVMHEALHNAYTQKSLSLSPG
light: B1 light
notes: copies: 2 + 2
- binding result (human C1q (Sigma C0660) [2]): binds
- fold decrease in binding vs WT [5]: 4 fold

B10: chCB6-huIgG1 K334V (antibody, name in EU numbering)
heavy: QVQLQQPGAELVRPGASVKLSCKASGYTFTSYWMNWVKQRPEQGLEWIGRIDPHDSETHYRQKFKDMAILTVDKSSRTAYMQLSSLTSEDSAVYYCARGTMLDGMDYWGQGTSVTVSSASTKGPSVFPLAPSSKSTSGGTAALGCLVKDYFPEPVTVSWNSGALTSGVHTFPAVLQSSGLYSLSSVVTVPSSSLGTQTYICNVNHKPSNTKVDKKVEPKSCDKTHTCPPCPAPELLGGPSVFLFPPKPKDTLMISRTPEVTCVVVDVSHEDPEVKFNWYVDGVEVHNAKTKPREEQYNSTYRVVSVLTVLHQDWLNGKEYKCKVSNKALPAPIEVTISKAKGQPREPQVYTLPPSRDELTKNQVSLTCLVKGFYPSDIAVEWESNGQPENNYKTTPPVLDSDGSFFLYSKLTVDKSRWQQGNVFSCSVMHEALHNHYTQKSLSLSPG
light: B1 light
notes: copies: 2 + 2
- fold increase in binding vs WT [6]: 3 fold
- binding result [7]: binds
- binding result (human C1q (Sigma C0660) [4]): binds

B11: chCB6-huIgG1 I332D/A378F (antibody, name in EU numbering)
heavy: not shown
light: B1 light
notes: copies: 2 + 2
- fold increase in binding vs WT [1]: 5 fold

B12: chCB6-huIgG1 E294N (antibody, name in EU numbering)
heavy: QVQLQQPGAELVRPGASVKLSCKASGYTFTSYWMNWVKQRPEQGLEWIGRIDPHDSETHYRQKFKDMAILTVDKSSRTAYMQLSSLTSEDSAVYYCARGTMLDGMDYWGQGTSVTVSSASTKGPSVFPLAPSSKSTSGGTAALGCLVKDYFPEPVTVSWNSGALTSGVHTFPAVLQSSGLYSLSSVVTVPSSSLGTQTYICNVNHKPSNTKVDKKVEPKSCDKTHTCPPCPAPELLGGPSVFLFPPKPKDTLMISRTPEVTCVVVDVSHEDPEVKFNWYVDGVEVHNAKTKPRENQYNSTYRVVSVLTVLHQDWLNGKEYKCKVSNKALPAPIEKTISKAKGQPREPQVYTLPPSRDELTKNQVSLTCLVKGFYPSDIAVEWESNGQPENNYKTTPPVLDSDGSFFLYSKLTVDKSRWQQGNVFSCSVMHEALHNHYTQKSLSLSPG
light: B1 light
notes: copies: 2 + 2
- fold decrease in binding vs WT (human C1q (Sigma C0660) [2]): 7 fold
- fold decrease in binding vs WT [3]: 8 fold

B13: chCB6-huIgG1 I332D/H435G (antibody, name in EU numbering)
heavy: not shown
light: B1 light
notes: copies: 2 + 2
- binding result [1]: binds

B14: chCB6-huIgG1 S239D/A378W (antibody, name in EU numbering)
heavy: not shown
light: B1 light
notes: copies: 2 + 2
- fold increase in binding vs WT [1]: 4 fold

B15: chCB6-huIgG1 S239D/H435G (antibody, name in EU numbering)
heavy: not shown
light: B1 light
notes: copies: 2 + 2
- fold increase in binding vs WT [1]: 3 fold

B16: chCB6-huIgG1 K334R (antibody, name in EU numbering)
heavy: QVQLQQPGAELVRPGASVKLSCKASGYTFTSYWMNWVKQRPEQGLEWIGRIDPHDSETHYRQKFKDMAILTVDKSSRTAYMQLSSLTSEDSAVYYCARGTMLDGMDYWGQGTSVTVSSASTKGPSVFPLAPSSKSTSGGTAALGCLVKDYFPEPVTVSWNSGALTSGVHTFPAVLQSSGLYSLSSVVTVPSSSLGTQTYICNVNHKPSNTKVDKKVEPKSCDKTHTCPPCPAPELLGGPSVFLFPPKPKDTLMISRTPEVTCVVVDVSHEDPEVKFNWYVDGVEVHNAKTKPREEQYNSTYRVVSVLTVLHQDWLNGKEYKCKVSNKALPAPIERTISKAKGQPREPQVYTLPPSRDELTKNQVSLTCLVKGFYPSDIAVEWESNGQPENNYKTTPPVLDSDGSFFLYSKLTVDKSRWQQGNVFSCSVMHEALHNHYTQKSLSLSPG
light: B1 light
notes: copies: 2 + 2
- binding result [6]: binds
- fold decrease in binding vs WT [7]: 5 fold
- fold increase in binding vs WT (human C1q (Sigma C0660) [4]): 4 fold

B17: chCB6-huIgG1 S239D/A378Y (antibody, name in EU numbering)
heavy: not shown
light: B1 light
notes: copies: 2 + 2
- fold increase in binding vs WT [1]: 4 fold

B18: chCB6-huIgG1 I332D/A378Y (antibody, name in EU numbering)
heavy: not shown
light: B1 light
notes: copies: 2 + 2
- fold increase in binding vs WT [1]: 5 fold
